In PMC5613972, “A specific single-stranded DNA induces a distinct conformational change in the nucleoid-associated protein HU”:

B1: oligo AB (dsDNA)
DNA 1: GGCCCCAGTGCTGCAATGATACCGCGAGAC
DNA 2: GTCTCGCGGTATCATTGCAGCACTGGGGCC
B2: oligo CD (dsDNA)
DNA 1: ATGACAACTAAAGCAACACCCAAAACA
DNA 2: TGTTTTGGGTGTTGCTTTAGTTGTCAT
B3: oligo C (ssDNA)
DNA: ATGACAACTAAAGCAACACCCAAAACA
B4: oligo B (ssDNA)
DNA: GTCTCGCGGTATCATTGCAGCACTGGGGCC
B5: oligo A (ssDNA)
DNA: GGCCCCAGTGCTGCAATGATACCGCGAGAC
B6: oligo D (ssDNA)
DNA: TGTTTTGGGTGTTGCTTTAGTTGTCAT

The binders below were run against T1, TtHU (Thermus thermophilus, UniProt P19436 2-97) (assay: EMSA; 1 uM DNA; EMSA: 20 mM Tris-HCl pH 7.5, 100 mM KCl, 37 °C, 1 h; CD: 20 mM phosphate pH 7.2, 100 mM KCl, 20 °C, 10 uM TtHU). Settings: protein: recombinant; tags: none stated (pET-11a); chain copies: 2; duplex of complementary oligos.
T1 sequence: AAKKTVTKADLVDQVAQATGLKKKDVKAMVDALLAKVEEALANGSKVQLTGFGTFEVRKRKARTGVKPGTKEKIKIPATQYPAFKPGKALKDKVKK
B1: binds. B2: binds.

Same assay, conditions: protein: recombinant; tags: none stated (pET-11a); chain copies: 2; single strand
B3: binds. B4: binds. B5: binds. B6: binds.
